The values below come from US20220259296A1 (Boehringer Ingelheim, published 2022).

Experiment [1] has as its target T1, human complement C3 (human, UniProt P01024 23-1663). The experiment in a line: cell-based or functional assay.
The target in experiment [2] is T2, cynomolgus monkey C3 (cynomolgus monkey (Macaca fascicularis)).
T2 construct: mature; Native protein from serum; also called cyno C3; cynomolgus C3
The experiment in a line: ELISA, cyno C3 captured from cynomolgus serum by coated polyclonal goat antiserum. As for the experimental part: Antibodies identified as capable of inhibiting all three complement pathways were assessed for their ability to bind cynomolgus monkey C3 in ELISA. Briefly, 96 well ELISA plates were coated with polyclonal goat antiserum deemed to be cross-reactive to cyno C3 and followed by a secondary association with a custom preparation of cynomolgus monkey serum (BioIVT, NB-151558). Serial dilutions of the antibody molecules were added to the ELISA plate and antibodies binding to cyno C3 were detected with a rabbit anti-human Kappa HRP antibody (Abcam, ab202549) or a mouse anti-His Tag HRP antibody (R&D Systems, MAB050H). Leads M0122, M0124 and M0251 show binding in a dose response manner to cynomolgus monkey C3.

Experiment [3] deals with T1, human complement C3. The experiment is described as follows: competition ELISA on human C3; competitor: biotinylated M0251 (panel title 'Competition with M0251'). On the procedure: (§1) M0251, M0228, M0122, M0123 and M0124 were tested in a pairwise combinatorial manner to identify those that target the same region (epitope) on C3. Briefly, one antibody was labelled via biotinylation and incubated together with other antibody clones in a C3 binding ELISA. Those anti-C3 antibodies that competed for the same binding region were considered to share similar epitopes and therefore to have similar functions. This information enables to reduce the number of potential antibody candidates while maintaining epitope diversity. Out of the five antibodies inhibiting all three complement pathways, M0251, M0228 and M0123 were considered to share the same epitope on C3 (FIG. 7D). Inhibiting leads were assumed to bind three different epitopes on C3 (FIG. 7A-7D).
(In an ELISA, binding on a coated surface is turned into a signal by an enzyme label.)

For experiment [4], the target named is T1, human complement C3. The experiment is described as follows: competition ELISA on human C3; competitor: biotinylated M0123 (panel title 'Competition with M0123'). On the procedure:
as §1

Experiment [5] addresses T1, human complement C3. The experiment in a line: biolayer interferometry, human C3. On the technique in general: Biolayer interferometry detects binding as a change in optical thickness at a sensor tip.
Experiment [6] concerns the target T3, human complement C3b (human, UniProt P01024 23-667; P01024 749-1663).
T3 construct: domain: C3b; Cleavage product of C3 (C3 without C3a)
The experiment in a line: direct ELISA, plate coated with purified human C3b. On the procedure: (§2) M0122, M0124 and M0228 were evaluated for their ability to bind both human C3 and C3b in a direct binding ELISA assay (FIG. 8A and FIG. 8B). Briefly, 96 well ELISA plates were coated with purified native human C3 or C3b (Complement Technology, A113 and A114). Serial dilutions of antibody molecules were added to the plate and detected by a rabbit anti-human Kappa HRP antibody (Abcam, ab202549) or a rabbit anti-His Tag HRP antibody (Abcam, ab1187). M0122, M0124 and M0228 show high affinity binding to both human C3 and C3b.

Experiment [7] concerns the target T1, human complement C3. The experiment in a line: direct ELISA, plate coated with purified native human C3. As for the experimental part: as §2
The target in experiment [8] is T1, human complement C3. The experiment in a line: competition ELISA on human C3; competitor: biotinylated M0122 (panel title 'Competition with M0122'). On the procedure:
as §1

T1 sequence (P01024 23-1663): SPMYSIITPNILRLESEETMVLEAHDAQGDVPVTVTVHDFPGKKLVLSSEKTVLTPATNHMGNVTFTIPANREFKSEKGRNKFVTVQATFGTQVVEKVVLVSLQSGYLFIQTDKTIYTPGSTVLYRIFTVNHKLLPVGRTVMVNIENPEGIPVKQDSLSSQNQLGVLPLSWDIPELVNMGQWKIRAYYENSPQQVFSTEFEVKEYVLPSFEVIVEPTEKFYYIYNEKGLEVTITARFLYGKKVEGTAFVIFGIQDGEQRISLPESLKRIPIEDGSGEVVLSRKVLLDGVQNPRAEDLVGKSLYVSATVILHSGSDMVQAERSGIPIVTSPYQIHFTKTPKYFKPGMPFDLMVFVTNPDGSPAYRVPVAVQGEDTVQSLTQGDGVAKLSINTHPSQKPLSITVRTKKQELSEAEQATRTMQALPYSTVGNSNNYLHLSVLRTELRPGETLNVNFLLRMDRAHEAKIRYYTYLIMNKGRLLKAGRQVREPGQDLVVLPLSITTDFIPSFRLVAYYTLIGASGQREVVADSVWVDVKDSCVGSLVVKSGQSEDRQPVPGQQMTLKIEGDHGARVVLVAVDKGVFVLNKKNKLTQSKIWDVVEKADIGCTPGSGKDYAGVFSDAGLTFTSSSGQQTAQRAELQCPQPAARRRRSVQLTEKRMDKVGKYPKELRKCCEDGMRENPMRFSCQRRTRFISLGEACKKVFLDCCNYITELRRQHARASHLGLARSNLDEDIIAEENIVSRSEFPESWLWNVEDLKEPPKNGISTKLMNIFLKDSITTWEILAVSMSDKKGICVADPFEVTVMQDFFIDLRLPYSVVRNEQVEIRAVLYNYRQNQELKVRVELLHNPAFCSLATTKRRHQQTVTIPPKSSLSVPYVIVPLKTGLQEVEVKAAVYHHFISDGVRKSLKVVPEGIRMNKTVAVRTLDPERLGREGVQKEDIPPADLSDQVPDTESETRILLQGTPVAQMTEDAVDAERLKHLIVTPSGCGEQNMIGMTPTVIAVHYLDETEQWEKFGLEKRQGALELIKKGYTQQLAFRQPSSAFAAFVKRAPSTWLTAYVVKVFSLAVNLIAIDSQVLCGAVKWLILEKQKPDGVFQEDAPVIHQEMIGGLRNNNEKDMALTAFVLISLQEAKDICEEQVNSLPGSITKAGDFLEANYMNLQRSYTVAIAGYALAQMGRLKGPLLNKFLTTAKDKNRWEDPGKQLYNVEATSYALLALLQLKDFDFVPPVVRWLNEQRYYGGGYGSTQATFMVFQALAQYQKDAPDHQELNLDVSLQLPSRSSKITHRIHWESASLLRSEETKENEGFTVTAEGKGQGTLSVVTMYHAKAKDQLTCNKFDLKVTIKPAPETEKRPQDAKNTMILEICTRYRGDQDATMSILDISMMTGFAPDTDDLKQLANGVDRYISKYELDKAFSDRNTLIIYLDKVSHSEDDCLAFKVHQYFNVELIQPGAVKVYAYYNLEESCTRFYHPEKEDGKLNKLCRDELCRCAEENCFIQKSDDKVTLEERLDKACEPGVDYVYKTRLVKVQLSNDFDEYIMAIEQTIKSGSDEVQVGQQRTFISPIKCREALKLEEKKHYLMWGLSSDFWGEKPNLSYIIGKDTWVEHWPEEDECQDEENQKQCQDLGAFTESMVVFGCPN
T3 sequence (P01024 23-667 limits assumed, chain 1 of 2): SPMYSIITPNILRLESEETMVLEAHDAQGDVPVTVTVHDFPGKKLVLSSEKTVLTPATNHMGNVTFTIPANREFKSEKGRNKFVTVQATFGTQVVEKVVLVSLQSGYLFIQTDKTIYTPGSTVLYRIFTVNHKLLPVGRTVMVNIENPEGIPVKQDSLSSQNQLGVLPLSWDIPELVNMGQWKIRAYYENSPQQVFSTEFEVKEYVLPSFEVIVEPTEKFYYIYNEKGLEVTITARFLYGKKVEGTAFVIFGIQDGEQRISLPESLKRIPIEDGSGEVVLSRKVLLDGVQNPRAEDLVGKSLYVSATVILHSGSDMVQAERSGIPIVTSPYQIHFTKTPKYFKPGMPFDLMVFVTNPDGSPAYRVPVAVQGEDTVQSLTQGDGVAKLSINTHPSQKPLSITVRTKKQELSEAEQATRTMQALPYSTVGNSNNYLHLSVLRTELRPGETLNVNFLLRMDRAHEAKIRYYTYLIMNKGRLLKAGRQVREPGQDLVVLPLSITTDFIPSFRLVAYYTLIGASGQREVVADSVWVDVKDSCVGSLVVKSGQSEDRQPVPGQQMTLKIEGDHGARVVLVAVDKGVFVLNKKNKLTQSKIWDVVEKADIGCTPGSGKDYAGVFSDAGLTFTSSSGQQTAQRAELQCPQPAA
T3 sequence (P01024 749-1663 limits assumed, chain 2 of 2): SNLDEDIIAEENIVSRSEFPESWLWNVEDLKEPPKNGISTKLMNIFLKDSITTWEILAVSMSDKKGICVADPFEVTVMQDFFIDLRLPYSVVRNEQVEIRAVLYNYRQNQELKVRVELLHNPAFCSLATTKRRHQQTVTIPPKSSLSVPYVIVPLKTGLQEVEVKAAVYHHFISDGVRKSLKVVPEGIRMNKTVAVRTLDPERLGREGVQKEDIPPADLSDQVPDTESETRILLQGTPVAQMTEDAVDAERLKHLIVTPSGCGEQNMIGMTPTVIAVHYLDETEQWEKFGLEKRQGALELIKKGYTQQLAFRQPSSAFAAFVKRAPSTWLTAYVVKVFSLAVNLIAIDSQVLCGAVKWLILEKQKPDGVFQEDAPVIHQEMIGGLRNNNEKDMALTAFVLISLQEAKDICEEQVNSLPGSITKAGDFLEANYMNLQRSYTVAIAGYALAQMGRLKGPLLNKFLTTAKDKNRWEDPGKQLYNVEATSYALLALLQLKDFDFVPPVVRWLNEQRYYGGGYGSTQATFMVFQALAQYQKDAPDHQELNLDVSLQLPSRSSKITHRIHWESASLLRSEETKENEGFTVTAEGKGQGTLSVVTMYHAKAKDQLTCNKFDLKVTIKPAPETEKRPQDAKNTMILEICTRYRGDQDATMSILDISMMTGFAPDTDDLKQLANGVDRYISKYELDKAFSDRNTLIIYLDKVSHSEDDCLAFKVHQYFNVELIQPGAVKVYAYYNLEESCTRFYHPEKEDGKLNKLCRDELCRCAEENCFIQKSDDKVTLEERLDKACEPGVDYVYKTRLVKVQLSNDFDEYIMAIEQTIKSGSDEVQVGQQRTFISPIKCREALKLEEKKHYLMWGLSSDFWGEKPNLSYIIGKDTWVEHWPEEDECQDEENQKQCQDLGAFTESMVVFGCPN

B1: M0251 (VHH)
VHH: EVQLVESGGGLVQAGGSLRLSCVASGHTFGNWAMGWFRQAPGKEREFVGAIRWSVGTTNYRDSVKGRFAISRDNARNTVYLQMNRLKPEDTAVYYCAAGTPFVLARINGYDYWGQGTQVTVSS
notes: Wild-type llama VHH domain; also called anti-C3 antibody M0251
Usually EC50 (read off the curve) stands for the midpoint of the concentration-response curve. Turning to B1, in experiment [1], the “inhibition of classical, lectin and alternative complement pathways in human serum (Wieslab Complement system Screen, C5b-C9 neoantigen)” value (“inhibition of classical” below) was ≥ 90%. Also, the “EC50 (read off the curve)” value in experiment [2] is ~5 nM. Also, the “IC50 (read off the curve)” value in experiment [3] is ~4 nM; in experiment [4] it was ~20 nM.

B2: M0228 (VHH)
VHH: EVQLVESGGGLVQAGGSLRLSCAASGRTINDYTMGWFRQAPGKDREFVSAINWRGSSTYYADSVKGRFTISRDNAKKTIYLQMNLLKPEDTAVYYCARQVSPYVELTATAAYWGQGTQVTVSS
notes: Wild-type llama VHH domain; also called anti-C3 antibody M0228
By Kd is commonly meant a measure of binding affinity in units of concentration. The term koff denotes the rate constant with which the complex falls apart. In general, kon refers to a measure of how fast the partners come together. For the molecule B2, the “inhibition of classical” value in experiment [1] is ≥ 90%. In experiment [5], this molecule returned a Kd of 0.199 nM, a koff of 0.000111 s⁻¹ and a kon of 557000 M⁻¹ s⁻¹. In addition, in experiment [6], the “EC50 (read off the curve)” value is ~0.03 µg/mL. For the same molecule, in experiment [7], the “EC50 (read off the curve)” value was ~0.03 µg/mL. Further, the “IC50 (read off the curve)” value in experiment [4] was ~2 nM.

B3: M0122 (antibody, V domains shown)
VH: QSVKESGGRLVTPGTPLTLTCTVSGFSLYNYAMNWVRQAPGKGLEWIGIINTDGNTNYASWAKGRFTISTTSSTTVDLKITSPTTEDTATYFCPRAVGYHHHALDPWGPGTLVTVSS
VL: ELVLTQSPSVSAALGASAKLTCTLSSAHKTYTIDWYQQQQGEAPRYLMQLKSDGSYTKGTGVPDRFSGSSSGADRYLIIPSVQADDEADYYCGTDYGGGYVFGGGTQLTVTG
notes: Wild-type rabbit VH/VL from a rabbit scFv phage library; ELISA detection used an anti-human Kappa HRP or an anti-His Tag HRP antibody; also called anti-C3 antibody M0122
Consider B3, for which the “inhibition of classical” value in experiment [1] is ≥ 90%. In experiment [5], this molecule yielded a Kd of 0.0528 nM. The koff in experiment [5] is 4.7e-06 s⁻¹. The kon in experiment [5] was determined as 89000 M⁻¹ s⁻¹. Further, the results for the “EC50 (read off the curve)” value in experiment [6], in experiment [7] and in experiment [2] were ~0.04 µg/mL, ~0.03 µg/mL and ~2 nM, respectively. For the same molecule, the “IC50 (read off the curve)” value in experiment [8] is ~20 nM.

B4: M0124 (antibody, V domains shown)
VH: QSVKESGGRLVTPGTPLTLTCTVSGIDLSRYWMNWVRQAPGKGLEWIGYITTNDKTYYANWAKGRYTISKTSSTTVDLKMTSLTTEDTATYFCARRSSGAYDIWGPGTLVTISS
VL: QPVLTQSPSASATLGASAKLTCTLSSAHKTYYIEWYQQQQGEAPRYLMQLKSDGTYTKGTGVPDRFSGSSSGADRYLIISSVQAEDEADYICGVTGGNVYVFGGGTQLTVTG
notes: Wild-type rabbit VH/VL from a rabbit scFv phage library; ELISA detection used an anti-human Kappa HRP or an anti-His Tag HRP antibody; also called anti-C3 antibody M0124
B4: the “inhibition of classical” value in experiment [1] was ≥ 90%. For the same molecule, in experiment [5], binding was put at a Kd of 0.0124 nM, the koff is 5.18e-05 s⁻¹ and the kon is 4.16e+06 M⁻¹ s⁻¹. For the same molecule, the “EC50 (read off the curve)” value in experiment [6] was ~0.04 µg/mL. For the same molecule, in experiment [7], the “EC50 (read off the curve)” value was ~0.07 µg/mL. The “EC50 (read off the curve)” value in experiment [2] is ~3 nM.

B5: M0123 (antibody, V domains shown)
VH: QSVKESEGRLVTPGTPLTLTCTASGFTIGSYHMSWVRQAPGKGLEWIGIIYTDGNTDYANWAKGRFTISKTSTTMDLKMTSLTAADTATYFCARRGYADYGYTFNLWGQGTLVTISS
VL: ELVLTQPASVQVNLGQTVSLTCTADTLSRNYASWYQQKPGQAPVLLIYRDTSRPSGVPDRFSGSSSGNTATLTISGAQAGDEADYYCATGDGSGSSYQFVFGGGTQLTVTG
notes: Wild-type rabbit VH/VL from a rabbit scFv phage library; A separate 'scFv-derivative of M0123 (26 kDa)' was used only in the Bruch's membrane diffusion test; also called anti-C3 antibody M0123
As to B5, the “inhibition of classical” value in experiment [1] was ≥ 90%. Further, the “IC50 (read off the curve)” value in experiment [4] is ~9 nM.
